Reference: patent US20090175786A1

How the values were obtained:
[1] = target: neuromedin-B preferring receptor (NMB-R), human (human) (UniProt P28336); experiment: displacement of 125I-universal ligand, human tumour sections
[2] = target: gastrin releasing peptide receptor (GRP-R), human (human) (UniProt P30550); experiment: as above
gastrin releasing peptide receptor (GRP-R), human (human), sequence (P30550 whole entry): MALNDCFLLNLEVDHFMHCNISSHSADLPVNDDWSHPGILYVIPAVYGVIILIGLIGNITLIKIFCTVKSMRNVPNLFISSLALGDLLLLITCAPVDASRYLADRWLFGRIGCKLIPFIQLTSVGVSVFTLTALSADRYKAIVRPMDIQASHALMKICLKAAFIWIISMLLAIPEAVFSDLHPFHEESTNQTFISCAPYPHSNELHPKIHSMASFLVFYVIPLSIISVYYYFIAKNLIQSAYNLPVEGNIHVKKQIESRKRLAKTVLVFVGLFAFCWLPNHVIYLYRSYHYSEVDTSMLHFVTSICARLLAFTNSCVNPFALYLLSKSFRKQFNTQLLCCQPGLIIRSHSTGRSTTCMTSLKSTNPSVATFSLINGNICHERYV

neuromedin-B preferring receptor (NMB-R), human (human), sequence (P28336 whole entry): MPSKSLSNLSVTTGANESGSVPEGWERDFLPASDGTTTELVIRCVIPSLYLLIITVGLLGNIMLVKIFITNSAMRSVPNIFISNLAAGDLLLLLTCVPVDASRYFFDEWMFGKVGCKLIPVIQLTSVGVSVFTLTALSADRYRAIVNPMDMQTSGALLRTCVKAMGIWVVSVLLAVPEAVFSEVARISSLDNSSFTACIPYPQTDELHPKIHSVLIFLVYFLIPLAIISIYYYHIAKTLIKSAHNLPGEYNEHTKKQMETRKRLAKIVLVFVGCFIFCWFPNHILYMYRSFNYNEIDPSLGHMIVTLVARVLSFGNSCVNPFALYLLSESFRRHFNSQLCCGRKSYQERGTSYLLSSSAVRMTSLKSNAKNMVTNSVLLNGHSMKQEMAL

- IC50 [1]: 0.8 nM
- IC50 [2]: 0.7 nM
Substance: [DTyr^6, βAla^11, Phe^13, Nle^14]-BBN(6-14) (peptide)
